Test results published in PMC3219723.

Key:
[1] = target: Cp183 dimer (HBV core protein, free dimer) (Hepatitis B virus) (UniProt P03147); assay: SEC; 5.3 µM Cp183 dimer alone or mixed with 11.2 µM SRPKΔ in disassembly buffer, dialysed overnight against reassembly buffer (0.25 M NaCl, 10 mM DTT, 20 mM Tris-HCl pH 7.4); Superose 6; fractions by SDS-PAGE
[2] = target: ASF/SF2 (Homo sapiens) (UniProt Q07955); settings: cited from earlier work
Sequence of UniProt Q07955 (Q07955 2-248): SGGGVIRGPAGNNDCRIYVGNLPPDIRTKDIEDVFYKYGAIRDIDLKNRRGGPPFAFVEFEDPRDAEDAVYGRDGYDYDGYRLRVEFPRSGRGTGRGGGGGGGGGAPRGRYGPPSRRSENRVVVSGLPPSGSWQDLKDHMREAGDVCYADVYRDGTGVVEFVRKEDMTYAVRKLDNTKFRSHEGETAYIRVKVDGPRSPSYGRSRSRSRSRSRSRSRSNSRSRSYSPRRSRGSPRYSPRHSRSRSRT

Sequence of UniProt P03147 (P03147 whole entry): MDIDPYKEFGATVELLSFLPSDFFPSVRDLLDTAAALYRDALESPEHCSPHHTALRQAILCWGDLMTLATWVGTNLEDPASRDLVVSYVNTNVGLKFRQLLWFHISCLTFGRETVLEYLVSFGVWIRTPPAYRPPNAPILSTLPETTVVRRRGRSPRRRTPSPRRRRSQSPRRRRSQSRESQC

Substance	stoichiometry N (SRPKΔ per Cp183 dimer) [1]	Kd [2]
SRPK1ΔN1S1 (truncated Serine Arginine protein kinase 1) (from UniProt Q96SB4 1-655) (enzyme)	> 1	–
SRPK1 (from UniProt Q96SB4)	–	50 nM
